The record followed here is article PMC9461283.

For this experiment, the target named is SARS-CoV-2 S receptor-binding domain (RBD) (SARS-CoV-2 (isolate Wuhan-Hu-1)) (UniProt P0DTC2). The experiment can be described thus: SPR. A general note: SPR reads the build-up and loss of mass on a sensor chip optically.

Take “rhesus macaca (Macaca mulatta) ACE2 ectodomain (ectoACE2), N-terminal 367 aa (from UniProt F7AH40 1-367) (domain or fragment)”: the Kd worked out at 68 nM.
Under “cynomolgus macaque (Macaca fascicularis) ACE2 ectodomain (ectoACE2), N-terminal 367 aa (domain or fragment)” stands 69.2 nM.

In general, Kd refers to the equilibrium constant for the complex coming apart. Higher therefore signals lower affinity.
